# From patent US20240150490A1 (MABPRO A S, published 2024)
# Residue numbers refer to the chain shown, from its start.
# B1: CA9hu-1_HC4LC4 (antibody, V domains shown)
# VH: EVQLVESGGGLVQPGGSLRLSCAASGFTFTDYYMHWVRQAPGRGLEWVAFIRNKASGYTPQYSASVKGRFTISRDNAENSLYLQMNSLRAEDTAVYYCVRGGHAGSNYWYFDVWGKGTTVTVSS
# VL: DIQMTQSPSSLSASVGDRVTINCHVSQNINVWLSWYQQKPGEAPKLLIYQASNLHTGVPSRFSGSGSGTGFTLTIRSLQPEDYATYYCQQGQSYPFTFGQGTKLEIK
# notes: Humanized from murine VII/20; also called HC4LC4 (CA9hu-1)
# B2: CA9hu-1_HC5LC2 (antibody, V domains shown)
# VH: B1 VH with R43K, A49G, N76D, A77S, E78K, R89K, A90T, K116Q, T119M
# VL: B1 VL with S10T, N22T, E42N, G70E, R76G, E81D, Y83F, A84V, L104V
# notes: Humanized from murine VII/20; also called HC5LC2 (CA9hu-1)
# B3: CA9hu-1_HC5LC4 (antibody, V domains shown)
# VH: B1 VH with R43K, A49G, N76D, A77S, E78K, R89K, A90T, K116Q, T119M
# VL: B1 VL
# notes: Humanized from murine VII/20; also called HC5LC4 (CA9hu-1)
# B4: CA9hu-1_HC5LC5 (antibody, V domains shown)
# VH: B1 VH with R43K, A49G, N76D, A77S, E78K, R89K, A90T, K116Q, T119M
# VL: B1 VL with N22T, E42K, G70D, L73F, R76S, Y83I
# notes: Humanized from murine VII/20; also called HC5LC5 (CA9hu-1)
# B5: CA9hu-1_HC3LC1 (antibody, V domains shown)
# VH: QVQLVQSGGGLVQPGRSLRLSCTASGFTFTDYYMHWVRQAPGKGLEWVGFIRNKASGYTPQYSASVKGRFTISRDDSKTIAYLQMNSLKTEDTAVYYCVRGGHAGSNYWYFDVWGQGTLVTVSS
# VL: B1 VL with N22T, E42K, K45N, G70H, R76S, Y83I, Q100G, L104V
# notes: Humanized from murine VII/20; also called HC3LC1 (CA9hu-1)
# B6: CA9hu-1_HC3LC2 (antibody, V domains shown)
# VH: B5 VH
# VL: B1 VL with S10T, N22T, E42N, G70E, R76G, E81D, Y83F, A84V, L104V
# notes: Humanized from murine VII/20; also called HC3LC2 (CA9hu-1)
# B7: CA9hu-1_HC4LC1 (antibody, V domains shown)
# VH: B1 VH
# VL: B1 VL with N22T, E42K, K45N, G70H, R76S, Y83I, Q100G, L104V
# notes: Humanized from murine VII/20; also called HC4LC1 (CA9hu-1)
# B8: CA9hu-1_HC4LC2 (antibody, V domains shown)
# VH: B1 VH
# VL: B1 VL with S10T, N22T, E42N, G70E, R76G, E81D, Y83F, A84V, L104V
# notes: Humanized from murine VII/20; also called HC4LC2 (CA9hu-1)
# B9: CA9hu-1 chimeric HC0LC0 (antibody, V domains shown)
# VH: EVKLVESGGGLVQPGGSLRLSCATSGFTFTDYYMHWVRQPPGMALEWLAFIRNKASGYTPQYSASVKGRFTISRDVSQTILYLQMNTLRPEDSATYYCVRGGHAGSNYWYFDVWGAGTTVTVSS
# VL: DIQMNQSPSSLSASLGDTITIACHVSQNINVWLSWYQQKPGNIPKLLIYQASNLHTGVPSRFTGSGSGTGFTLTISSLQPEDIATYYCQQGQSYPFTFGSGTKLEIK
# notes: also called HC0LC0 (CA9hu-1); chimeric variant
# Molecular target: recombinant human CA IX (human, UniProt Q16790 38-414)
# Assay: SPR (Biacore 2000), antibody captured on CM5 chip, rh CA IX in flow, 25 C
# Procedure: In order to determinate the antigen-binding affinity of humanized variants, measurements of affinity constant (KD) for antibodies binding to CA IX were performed by SPR using a Biacore 2000 (T200 in case of CA9hu-2) instrument (GE Healthcare, Piscataway, NJ USA). Each humanized antibody variant was captured on the CM5 sensor chip and recombinant human CA IX (rh CA IX; 42 kDa; R&D Systems, Inc., Minneapolis MN, USA) protein as an antigen was added to the buffer flowing over the chip. The setting details of quantitative interaction analysis between humanized antibodies and rh CA IX were as follows: flow rate 30 μl/min; analysis temperature 25° C.; analysis buffer (10mM HEPES pH 7.4, 150 mM NaCl, […], 0.05% Tween 20). Results from SPR analysis are expressed as the equilibrium dissociation constant (KD) (Table 7).
row,Binder,Kd [nM]
1,B1,15.2
2,B2,52
3,B3,54
4,B4,64
5,B5,91
6,B6,81
7,B7,15.2
8,B8,9.1
9,B9,22

# Molecular target: CA IX expressed by cells (C-33a_CA IX transfectants; hypoxic BT-20, JIMT-1, 8-MG-BA and 42-MG-BA cells) (human, UniProt Q16790 38-459)
# Assay: cell-based or functional assay
row,Binder,"ADCC reporter activity, induction over no Ab, BT-20 cells [fold]"
1,B1,> 25
